Assay results taken from the DeepSol protein solubility set.

Test: soluble on expression in E. coli; label from the status in PepcDB or PDB records

| Sequence | soluble on expression in E. coli |
| --- | --- |
| MGSDKIHHHHHHMTENFWRELPRPFFVLAPMEDVTDVVFRHVVSEAGRPDVFFTEFTNSESYCHPDGKDSVRGRLTFTEDEQPIVAHIWGDKPENFRKMSIGMAELGFKGLDINMGCPVPNVAGNGKGSGLICRPAVAAELIQAAKAGGLPVSVKTRLGYTDVDEWREWLTHILKQDIANLSIHLRTRAEMSKVDAHWELIPEIKKLRDEVAPDTLLTINGDIPDRQTGLKLAEQYGVDGIMIGRGIFTNPFAFEKEPKEHSSKELLDLLRLHLDLHDEYSKEEARPYKPLPRFFKIYLRGFRGASELRNQCMNTKSTDEVRALLDDFERKYLDGIE | not soluble |
| RPGGDAREPRKIILHKGSTGLGFNIVGGEDGEGIFVSFILAGGPADLSGELRRGDRILSVNGVNLRNATHEQAAAALKRAGQSVTIVAQYRPEEYSRFES | soluble |
| MRSLLIALAATVALSLPARADEVTVAVTAIVEHPALDAARDGVKDALAAAGYKEGENLKFIYESAQGNPATAAQIARQFAGEAPSVIVPISTPSAQAVVSSTRDIPVVFTAVSDPLGAQLVKDMEKPGGNVTGLSDLSPVAEHVALIKEILPNVKTIGYLYNSGEANSVSLLAVLKEEAEKAGLSVIESAATKSAEVQGAARALVGRADAIYIPTDNTIISALEGAVAVAEESKLPLFTADTDSVSRGAVAALGFNYYDVGKQTGEVVVRVLKGENPGDIAVKVAAGTDLVINKGAATRMGVTLPESVVGRATRTIE | not soluble |
| GIDPFTVRTRVSEGLVLAEPAKLMISTDGSASTADLTRATTTWNQQSNNLGASSKYVTSVLMDAGNTGVITITYVADQVGLPTAGNTLILSPYINDGNTRTALATAVAAGTRGTIDWACTSASNATATAQGFTGMAAGSVPQEFAPAQCR | soluble |
| MSLELTVFSIGDWGEKTECLVNVTTKMGSLESAMNPKFIISVGDNFYQRGVKSVEDAAWTEILEEPFGKLSKHLKVHSCLGDHDWRGSTTAQIDRTNYANNTRWYLPGYWWYEKVTFTSEVSLPSLFEKSGLGEISANNSFHFNSSKTENSTSCEIDCLDEIVDNLNTMVNRNNSWNEDLSYKTSISEYFSEKQVNSTAVFIYIDSWTLTQDPFKKTSISYKYSQLEFIEQTLKAAVFENVDWIILVTHYSIYSSGLHGPHTRLASILMPLIKKYRVDFIISGHDHHSEILVPEDFNSYFQIVGASSKPRTSFGATDENSIFKSNTCSFASFTFSKDIAVSRIFSINSSLFSYFKRSNKFEREGHHHHHH | not soluble |
| ERVKWRKQIEASGARLKSMIDQTPAPTLVLMGDNLVIEQVNTSMLKLLGHEENIVGIPLLTLMPELKGQYIWEQVEKVYREGIPFDQSEVRVSHKRTGMMEDYYYNIAYRPLKEDGRITGMIQVAIDVT | not soluble |
| MIMICPGCSCLCDDIYIKDGKVFNACRRGEEIFAKYNENRAVARVDGKEVDVDTAIEKAIEILKDAKNPAIYGLDTTVVEAQSLAIEVAEKLNGYIDDNSSFCLGELVEAVLKGEIPTTTLDEVRDNAYVLVYWGTNPYHSLSRHMSKYTYYPRGKRRPRGYDEDRYLVVVDVRKSETAKLAKKNAKFIQVESDAELVDSFMKVVDGKAAKYAKEAGAIITEMKKADFNVIFGGLGLKYGLKDLNMFKEMVKKLNEVAKVYFIPAGFHGNMRGFNETLFEKVGYVNKYSFRDGKSGEEFAFTELLKNEKIDAALIVGTDPVYSLPFDVSSKLGKVKTIVIDPRMSFTARIADVVIPSAISGIEAGGTMVRSDGVRVMLEPLEEKEVNDVYILQRIKEGL | not soluble |
| MDLSGVKKKSLLGVKENNKKSSTRAPSPTKRKDRSDEKSKDRSKDKGATKESSEKDRGRDKTRKRRSASSGSSSTRSRSSSTSSSGSSTSTGSSSGSSSSSASSRSGSSSTSRSSSSSSSSGSPSPSRRRHDNRRRSRSKSKPPKRDEKERKRRSPSPKPTKVHIGRLTRNVTKDHIMEIFSTYGKIKMIDMPVERMHPHLSKGYAYVEFENPDEAEKALKHMDGGQIDGQEITATAVLAPWPRPPPRRFSPPRRMLPPPPMWRRSPPRMRRRSRSPRRRSPVRRRSRSPGRRRHRSRSSSNSSR | soluble |
| MKFKAVFISDTHLGTKDSKASLLLEFIKEIETKELYLVGDIIDGWSLKRKWIWLQPHSDVIQKILKAARKGVRVTYILGNHDEFIRPFLPLALGDHIRVVDEATYKAKNKKRYKIVHGDLYDSITMTKKWLAILGDNGYQFLLRLNDPINTLRQRLGFRRYWSFSQFIKDHVKQAVAYISDFEKILVAHAREEKFDGIICGHIHKAEIRDIEGITYMNCGDWVESCTALVETLEGEFKIIRWLDER | not soluble |
